Assay results from article PMC4856991.

Target: Hsp90alpha recombinant (UniProt P07900 1-732)
Assay: filter binding

CTGCTAGCCTCTGGATTTGA (XNA, full PS; LNA nt 1-5 and 16-20, DNA 6-15) [390896 PS/LNA 5-10-5]
Kd: 17.7 nM
